Here are results for eight molecules from publication PMC2766623, “The Vitamin B1 Metabolism of Staphylococcus aureus Is Controlled at Enzymatic and Transcriptional Levels” (PLoS ONE, 2009).

Data set [1] deals with T1, SaGTPase (Staphylococcus aureus, UniProt P67682).
T1 construct: gene rsgA; monomer; gtpase-epi-tpk operon
T1 sequence (P67682 1-291): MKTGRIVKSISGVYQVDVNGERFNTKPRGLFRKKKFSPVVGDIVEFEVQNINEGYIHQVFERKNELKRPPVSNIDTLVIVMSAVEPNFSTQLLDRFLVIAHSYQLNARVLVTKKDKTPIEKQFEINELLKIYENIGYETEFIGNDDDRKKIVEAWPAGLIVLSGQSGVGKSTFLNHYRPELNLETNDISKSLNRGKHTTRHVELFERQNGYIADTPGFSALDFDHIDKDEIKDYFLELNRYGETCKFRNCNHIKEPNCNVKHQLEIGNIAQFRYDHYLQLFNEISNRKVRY
Description: phosphate release, malachite green. Type of data set: biochemical. As to conditions: 1 mM substrate, 1 mM MgCl2, 100 mM MOPS pH 7.5, 37°C.

Data set [2] deals with S. aureus 4-amino-5-hydroxymethyl-2-methylpyrimidine (HMP) kinase (SaThiD) (Staphylococcus aureus ATCC25923). Description: SEC-MALS; Superdex 200 10/30 size exclusion column followed by static light scattering (miniDAWN Tristar); 100 mM Tris-HCl buffer, pH 8, 150 mM NaCl; affinity purified proteins. Background: Size exclusion chromatography separates by hydrodynamic size, large species first.

The target in data set [3] is S. aureus 5-(2-hydroxyethyl)-4-methylthiazole (THZ) kinase (SaThiM) (Staphylococcus aureus ATCC25923). Described as above.
In data set [4] the target is S. aureus thiaminase type II (SaTenA) (Staphylococcus aureus ATCC25923). Described as above.
Substrate in data set [5]: Cc1ncc(C[n+]2csc(CCO)c2C)c(N)n1
Kind of data set: purified protein. As to conditions: 2 mM ATP, 4 mM MnCl2, 100 mM Tris-HCl pH 8.5, 37°C. Type of data set: biochemical, Staphylococcus aureus.

Substrate in data set [6]: Cc1ncc(CO)c(N)n1
Kind of data set: radiometric [gamma-33P]-ATP phosphorylation, TLC, Lineweaver-Burk. Type of data set: biochemical, Staphylococcus aureus. As to conditions: 1 mM ATP, 2 mM MgCl2, 100 mM potassium phosphate pH 7.5, 37°C. The source says:
radiometric [gamma-33P]-ATP phosphorylation, TLC, Lineweaver-Burk on SaThiD

Substrate in data set [7]: Cc1ncc(C[n+]2csc(CCO)c2C)c(N)n1
Kind of data set: thiamine hydrolysis, products HMP/THZ measured by radiometric kinase assay, TLC, Lineweaver-Burk. As to conditions: 100 mM Tris-HCl pH 7.5, 37°C, no nucleophile needed. The data set is classed as biochemical, Staphylococcus aureus. An excerpt: thiamine hydrolysis, products HMP/THZ measured by radiometric kinase assay, TLC, Lineweaver-Burk on SaTenA

Substrate in data set [8]: Cc1ncc(COP(=O)(O)OP(=O)(O)O)c(N)n1
Description: purified protein. The data set is classed as biochemical, Staphylococcus aureus. As to conditions: co-substrate THZ-[33P] (THZ phosphate), 37°C.

Take `Nc1nc2c(ncn2[C@@H]2O[C@H](COP(=O)(O)OP(=O)(O)OP(=O)(O)O)[C@@H](O)[C@H]2O)c(=O)[nH]1` [GTP]: the “phosphate release, malachite green” value in data set [1] was “the S. aureus GTPase is not restricted to GTP and exhibits a broad substrate spectrum”.

In the case of “S. aureus 4-amino-5-hydroxymethyl-2-methylpyrimidine (HMP) kinase (SaThiD) (enzyme)”, the stoichiometry N (in general, the number of molecules, sites or subunits per partner or assembly) in data set [2] is 2.

In data set [3], “S. aureus 5-(2-hydroxyethyl)-4-methylthiazole (THZ) kinase (SaThiM) (enzyme)” registered a stoichiometry N of 2.

In data set [4], “S. aureus thiaminase type II (SaTenA) (enzyme)” gave a stoichiometry N of 3.

B1: SaTPK (Staphylococcus aureus subsp. aureus NCTC 8325) (protein)
chain: MHINLLCSDRHLPQDIWAKSNEGKWGGVDRGALILLKHQIIPFFSVGDFDSVSKEERQLLTEQLQIKPVQAEKADTDLALAVDKAVALGFDSITIYGATGGRLDHFFGAIQLLLKKAYYKHDVHIEVIDQQNKIELLPKGQHTVEKDKSYPYISFIPMTDDVELSLAGFKYNLARQMLNIGSTLTISNEIESLQAKVTVHDGLILQIRSTDLN
notes: monomer; gtpase-epi-tpk operon
Turning to B1, in data set [5], the Km (as a rule, the substrate concentration at which the rate is half of its maximum) turned out to be 394 ± 74 µM and the kcat (commonly the maximal rate divided by the concentration of active sites) was determined as 0.5 ± 0.07 min⁻¹.

B2: SaThiD (Staphylococcus aureus subsp. aureus N315) (protein)
chain: MIKPKIALTIAGTDPTGGAGVMADLKSFHSCGVYGMGVVTSIVAQNTLGVQHIHNLNHQWVDEQLDSVFNDTLPHAIKTGMIATADTMETIRHYLMQHESIPYVIDPVMLAKSGDSLMDNDTKQNLQHTLLPLADVVTPNLPEAEEITGLTIDSEEKIMQAGRIFINEIGSKGIIIKGGHSNDTDIAKDYLFTNEGVQTFENERFKTKHTHGTGCTFSAVITAELAKGRPLFEAVHKAKKFISMSIQYTPEIGRGRGPVNHFAYLKKEGLDDELSK
notes: dimer; 831 bp ORF in tenA-thiM-thiD-thiE operon
Consider B2, for which, in data set [6], the Km is 635 ± 20 µM and the kcat amounted to 0.7 ± 0.05 min⁻¹.

B3: SaTenA (Staphylococcus aureus subsp. aureus NCTC 8325) (protein)
chain: MEFSQKLYQAAKPIINDIYEDDFIQKMLSGDIGADALRHYLKADAAYLKEFTNLYALLIPKMNSMNDVKFLVEQIEFMVEGEVLAHDILAQIVGESYEEIIKTKVWPPSGDHYIKHMYFQAHSRENAIYTIAAMAPCPYIYAELAKRSQSDHKLNREKDTAKWFDFYSTEMDDIINVFEAIMNKLAESMSDKELEQVKQVFLESCIHERRFFNMAMTLEQWEFGGKVND
notes: trimer by SLS
B3: in data set [7], the Km was found to be 256 ± 44 µM and the kcat was 0.1 ± 0.02 min⁻¹.

B4: SaThiE (Staphylococcus aureus subsp. aureus NCTC 8325) (protein)
chain: MFNQSYLNVYFICGTSDVPSHRTIHEVLEAALKAGITLFQFREKGESALKGNDKLVLAKELQHLCHQYDVPFIVNDDVSLAKEINADGIHVGQDDAKVKEIAQYFTDKIIGLSISDLDEYAKSDLTHVDYIGVGPIYPTPSKHDAHIPVGPEMIATFKEMNPQLPIVAIGGINTNNVAPIVEAGANGISVISAISKSENIEKTVNRFKDFFNN
notes: low yield, three bands on SDS-PAGE
Consider B4, for which, in data set [8], the Km was 145 ± 36 µM.
